The values below come from patent publication US6991908B1, “Antiobestic agents methods for screening antiobestic agents and kits comprising same” (Takeda Chemical Industries, Ltd., priority 1998, dated 2006).

pIC50: −log10 of the molar value. Positions of bridges follow the written chain, without caps; N, C: chain ends. No end group written: not given here. *: point of attachment. X1 = 3‑(4-hydroxy-3-iodophenyl)propionyl, O=C(CCc1ccc(O)c(I)c1)*

Format in all cases: biochemical
One test concerns the target T1, human SLC-1 (Homo sapiens, UniProt Q99705).
T1 construct: expressed in transfected cells; host or cells: CHO dhfr- cells, plasmid pAKK0-hSLC-1(S) or pAKK0-hSLC-1(L)
In words: Agonist activity of Bolton-Hunter derivatized MCHs by GTPγS binding assay (Example 22). Particulars: membrane fraction given as human SLC-1-expression CHO; FIG. 8. In general terms: GTPγS is a poorly hydrolysed GTP analogue; its binding reports G protein activation.

For test [1], the target named is T2, rat SLC-1 (Rattus norvegicus, UniProt P97639).
T2 construct: expressed in transfected cells; host or cells: CHO dhfr- cells, plasmid pAKK0-SLC-1, mainly clone #44
In words: Agonist activity by GTPγS binding assay, rat SLC-1-expression CHO cell membrane fraction (Example 21). Particulars: rat SLC-1 membrane, FIG. 7. Here is the method:
(§1) A rat SLC-1-expression CHO cell membrane fraction was prepared by the following procedure. Rat SLC-1-expression CHO cells (1×10^8 cells) were suspended in phosphate buffered saline (pH 7.4) supplemented with 5 mM EDTA (ethylene diamine tetra acetic acid) followed by centrifugation. after 10 ml of a homogenate buffer (10 mM NaHCO3, 5 mM EDTA, pH 7.5) was added to the cell pellets, the mixture was homogenized with a polytron homogenizer. the homogenate was then centrifuged at 400×g for 15 minutes. the resulting supernatant was further centrifuged at 100,000×g for an hour to give membrane fraction precipitates. the precipitates were suspended in 2 ml of an assay buffer (50 mM Tris-HCl (pH 7.5), 1 mM EDTA, 0.1% BSA (bovine serum albumin), 10 mM MgCl2, 100 mM NaCl, 1 μM GDP (guanosine 5′-diphosphate), 0.25 mM PMSF (phenylmethylsulfonyl fluoride), 1 μg/ml pepstatin, 20 μg/ml leupeptin, 10 μg/ml phosphoramidon). the suspension was centrifuged at 100,000×g for an hour. the cell membrane recovered as precipitates was resuspended in 20 ml of the assay buffer. after dispensing, the suspension was stored at −80° C., which maybe thawed every time upon use.

Test [2] concerns the target T2, rat SLC-1. In words: Inhibition of MCH-induced GTPγS binding by the method of Example 21 (compound plus MCH). The following applies: read-out: IC50 calculated from the binding inhibition rate (%). How it is done: The IC50(nM) of the compound (1) supra
as §1

T1 sequence (Q99705 with tags, fused parts or gaps): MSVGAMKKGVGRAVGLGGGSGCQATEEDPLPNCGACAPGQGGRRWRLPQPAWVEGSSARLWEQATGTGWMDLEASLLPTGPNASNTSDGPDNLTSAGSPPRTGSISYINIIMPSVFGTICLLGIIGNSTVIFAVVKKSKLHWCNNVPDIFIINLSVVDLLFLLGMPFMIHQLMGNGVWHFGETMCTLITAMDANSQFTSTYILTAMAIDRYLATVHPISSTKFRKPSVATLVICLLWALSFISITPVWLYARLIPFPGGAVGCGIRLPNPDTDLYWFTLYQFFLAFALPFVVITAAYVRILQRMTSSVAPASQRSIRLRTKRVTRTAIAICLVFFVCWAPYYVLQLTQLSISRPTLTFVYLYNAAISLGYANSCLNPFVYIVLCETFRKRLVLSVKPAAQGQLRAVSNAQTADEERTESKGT
T2 sequence (P97639 whole entry): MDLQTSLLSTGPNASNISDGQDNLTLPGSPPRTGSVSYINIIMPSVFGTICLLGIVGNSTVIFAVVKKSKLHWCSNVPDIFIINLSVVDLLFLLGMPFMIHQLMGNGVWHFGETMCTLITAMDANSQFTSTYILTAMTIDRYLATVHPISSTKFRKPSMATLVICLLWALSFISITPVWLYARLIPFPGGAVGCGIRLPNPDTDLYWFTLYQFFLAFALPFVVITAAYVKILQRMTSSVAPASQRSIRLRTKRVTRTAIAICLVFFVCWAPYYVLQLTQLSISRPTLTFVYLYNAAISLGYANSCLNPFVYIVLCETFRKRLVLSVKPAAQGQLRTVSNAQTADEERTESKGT

With “BH-MCH(5-19): MCH(5-19) derivatized with a non-isotope Bolton-Hunter reagent (X1-LRCMLGRVYRPCWQV; disulfide 3-12)”, in the test with human SLC-1, the “amount of [35S]-GTPγS bound (agonist activity), dose dependence” value (shortened to “amount of [35S]-GTPγS bound”) is reported as “increased dose-dependently”.

Take “[N-(3-(4-Hydroxy-3-iodophenyl)propionyl)-Met^4]-MCH(4-19) (X1-MLRCMLGRVYRPCWQV; disulfide 4-13) [BH-MCH(4-19)]”: in the test with human SLC-1, the “amount of [35S]-GTPγS bound” value is listed as “increased dose-dependently”. Turning to “Asp-Met-Leu-Arg-Cys-Met-Leu-Gly-Arg-Val-Tyr-Arg-Pro-Cys -Trp-Gln-Val (DMLRCMLGRVYRPCWQV; disulfide 5-14) [MCH(3-19)]”, the “agonist activity as compared to that of MCH” value in the test with rat SLC-1 [1] is reported as “almost the same agonist activity”. As to “Met-Leu-Arg-Cys-Met-Leu-Gly-Arg-Val-Tyr-Arg-Pro-Cys-Trp -Gln-Val (MLRCMLGRVYRPCWQV; disulfide 4-13) [MCH(4-19)]”, in the test with rat SLC-1 [1], the “agonist activity as compared to that of MCH” value is “almost the same agonist activity”. Consider “Phe-Asp-Met-Leu-Arg-Cys-Met-Leu-Gly-Arg-Val-Tyr-Arg-Pro -Cys-Trp-Gln-Val (FDMLRCMLGRVYRPCWQV; disulfide 6-15) [MCH(2-19)]”, for which the “agonist activity as compared to that of MCH” value with rat SLC-1 [1] is “almost the same agonist activity”.

Consider “BH-MCH(2-19): MCH(2-19) derivatized with a non-isotope Bolton-Hunter reagent (X1-FDMLRCMLGRVYRPCWQV; disulfide 6-15)”, for which the “amount of [35S]-GTPγS bound” value with human SLC-1 is “increased dose-dependently”. On to `COc1ccc(-c2ccc(C(=O)Nc3ccc4c(c3)CCC(CN(C)C)C4)cc2)cc1` (stereo not shown) [compound (1), N-[2-(N,N-Dimethylamino)methyl-6-tetralinyl]-(4′-methoxybiphenyl-4-yl)carboxamide], for which the pIC50 on rat SLC-1 [2] was 7.40. Regarding “Des-[Asp^1, Phe^2, Asp^3, Met, Leu^5]-MCH (RCMLGRVYRPCWQV; disulfide 2-11) [MCH(6-19)]”, the “decrease of agonist activity as compared to that of MCH” value with rat SLC-1 [1] was “approximately 10 times”. On to “Leu-Arg-Cys-Met-Leu-Gly-Arg-Val-Tyr-Arg-Pro-Cys-Trp-Gln -Val-OH (LRCMLGRVYRPCWQV-OH; disulfide 3-12; N-terminus assumed; SMILES CSCC[C@@H]1NC(=O)[C@@H](NC(=O)[C@H](CCCNC(=N)N)NC(=O)[C@@H](N)CC(C)C)CSSC[C@@H](C(=O)N[C@@H](Cc2c[nH]c3ccccc23)C(=O)N[C@@H](CCC(N)=O)C(=O)N[C@H](C(=O)O)C(C)C)NC(=O)[C@@H]2CCCN2C(=O)[C@H](CCCNC(=N)N)NC(=O)[C@H](Cc2ccc(O)cc2)NC(=O)[C@H](C(C)C)NC(=O)[C@H](CCCNC(=N)N)NC(=O)CNC(=O)[C@H](CC(C)C)NC1=O) [MCH(5-19)]”, for which the “agonist activity as compared to that of MCH” value with rat SLC-1 [1] is recorded as “almost the same agonist activity”. Regarding “BH-MCH(3-19): MCH(3-19) derivatized with a non-isotope Bolton-Hunter reagent (X1-DMLRCMLGRVYRPCWQV; disulfide 5-14)”, in the test with human SLC-1, the “amount of [35S]-GTPγS bound” value is recorded as “increased dose-dependently”.

A word on the pIC50: it is the negative decadic logarithm of the IC50, by convention in mol/L.
